Test results published in paper PMC8191807, “The fidelity of DNA replication, particularly on GC-rich templates, is reduced by defects of the Fe–S cluster in DNA polymerase δ” (Nucleic Acids Research, 2021).
One block for each binder: values may come before it.

Tests used:
[1] = target: T1, Pol3p, catalytic subunit of DNA polymerase δ (overexpressed for Pol δ purification) (S. cerevisiae, UniProt P15436 1-1097); experiment: co-purification (glutathione Sepharose, MonoS FPLC), composition by gel electrophoresis; Pol3p, Pol31p and Pol32p overexpressed together in the MET18 strain BJ2168; batch bound to glutathione Sepharose 4B at 4°C, washed with Hep250, Hep150, Hep50, eluted with 20 mM glutathione, PreScission Protease, MonoS gradient 50-1000 mM NaCl; conditions: partners not purified
T1 construct: Pol3p, catalytic subunit of DNA polymerase δ, Saccharomyces cerevisiae; also called catalytic subunit of Pol δ; source: purified on glutathione Sepharose 4B, PreScission Protease, MonoS FPLC
T1 sequence (looked up): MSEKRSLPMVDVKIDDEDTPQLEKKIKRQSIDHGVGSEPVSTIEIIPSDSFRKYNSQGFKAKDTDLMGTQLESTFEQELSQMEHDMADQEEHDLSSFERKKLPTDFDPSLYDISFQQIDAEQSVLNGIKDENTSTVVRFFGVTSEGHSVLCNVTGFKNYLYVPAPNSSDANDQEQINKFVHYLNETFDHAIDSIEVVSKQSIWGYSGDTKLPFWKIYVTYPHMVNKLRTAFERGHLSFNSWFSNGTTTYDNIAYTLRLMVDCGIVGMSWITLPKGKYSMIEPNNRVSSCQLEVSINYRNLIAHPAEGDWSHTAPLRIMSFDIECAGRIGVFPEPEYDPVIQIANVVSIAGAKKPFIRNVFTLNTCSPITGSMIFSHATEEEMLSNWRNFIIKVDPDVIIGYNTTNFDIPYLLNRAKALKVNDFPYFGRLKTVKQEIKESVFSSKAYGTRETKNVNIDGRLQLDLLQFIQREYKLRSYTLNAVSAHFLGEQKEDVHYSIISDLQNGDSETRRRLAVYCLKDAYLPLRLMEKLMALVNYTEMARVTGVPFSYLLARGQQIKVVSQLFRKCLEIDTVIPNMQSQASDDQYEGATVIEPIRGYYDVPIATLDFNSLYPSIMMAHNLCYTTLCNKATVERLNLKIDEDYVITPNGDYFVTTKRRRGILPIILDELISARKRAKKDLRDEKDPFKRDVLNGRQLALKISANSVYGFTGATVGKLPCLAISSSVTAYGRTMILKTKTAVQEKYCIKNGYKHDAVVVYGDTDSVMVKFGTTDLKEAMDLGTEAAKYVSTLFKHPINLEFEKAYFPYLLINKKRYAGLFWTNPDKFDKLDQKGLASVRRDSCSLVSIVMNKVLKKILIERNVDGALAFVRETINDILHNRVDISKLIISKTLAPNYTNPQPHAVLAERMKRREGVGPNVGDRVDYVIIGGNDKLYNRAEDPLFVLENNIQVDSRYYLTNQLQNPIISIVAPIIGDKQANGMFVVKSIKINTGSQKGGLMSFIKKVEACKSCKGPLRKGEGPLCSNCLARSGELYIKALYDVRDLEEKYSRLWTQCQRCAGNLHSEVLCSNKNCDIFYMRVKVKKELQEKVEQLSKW

[2] = target: T2, Pol3 fused to a LexA DNA-binding domain (LexABD-POL3, pBL322) (S. cerevisiae, UniProt P15436 1-1097); experiment: two-hybrid; LexA DNA-binding domain and GAL4 activation domain fusions, (lexAop)8-lacZ reporter, quantitative β-galactosidase assays in triplicate; wild-type strain L40 and its met18Δ derivative DKy440; conditions: partners not purified
T2 construct: Pol3p, catalytic subunit of DNA polymerase δ, Saccharomyces cerevisiae; also called Pol3^BD; source: yeast two-hybrid fusion (2μ vector pBTM116, strain L40 or its met18Δ derivative DKy440)
T2 sequence (looked up): T1 sequence (looked up)

stoichiometry N [1]: 1.1 molar ratio relative to Pol3p
B1: Pol32p, accessory subunit of DNA polymerase δ (overexpressed for Pol δ purification) (natural protein, S. cerevisiae, UniProt P47110 1-350, looked up)
chain: MDQKASYFINEKLFTEVKPVLFTDLIHHLKIGPSMAKKLMFDYYKQTTNAKYNCVVICCYKDQTIKIIHDLSNIPQQDSIIDCFIYAFNPMDSFIPYYDIIDQKDCLTIKNSYELKVSESSKIIERTKTLEEKSKPLVRPTARSKTTPEETTGRKSKSKDMGLRSTALLAKMKKDRDDKETSRQNELRKRKEENLQKINKQNPEREAQMKELNNLFVEDDLDTEEVNGGSKPNSPKETDSNDKDKNNDDLEDLLETTAEDSLMDVPKIQQTKPSETEHSKEPKSEEEPSSFIDEDGYIVTKRPATSTPPRKPSPVVKRALSSSKKQETPSSNKRLKKQGTLESFFKRKAK
notes: Pol32p, accessory subunit of DNA polymerase δ, Saccharomyces cerevisiae

stoichiometry N [1]: 0.8 molar ratio relative to Pol3p
B2: Pol31p, accessory subunit of DNA polymerase δ (overexpressed for Pol δ purification) (natural protein, S. cerevisiae, UniProt P46957 1-487, looked up)
chain: MDALLTKFNEDRSLQDENLSQPRTRVRIVDDNLYNKSNPFQLCYKKRDYGSQYYHIYQYRLKTFRERVLKECDKRWDAGFTLNGQLVLKKDKVLDIQGNQPCWCVGSIYCEMKYKPNVLDEVINDTYGAPDLTKSYTDKEGGSDEIMLEDESGRVLLVGDFIRSTPFITGVVVGILGMEAEAGTFQVLDICYPTPLPQNPFPAPIATCPTRGKIALVSGLNLNNTSPDRLLRLEILREFLMGRINNKIDDISLIGRLLICGNSVDFDIKSVNKDELMISLTEFSKFLHNILPSISVDIMPGTNDPSDKSLPQQPFHKSLFDKSLESYFNGSNKEILNLVTNPYEFSYNGVDVLAVSGKNINDICKYVIPSNDNGESENKVEEGESNDFKDDIEHRLDLMECTMKWQNIAPTAPDTLWCYPYTDKDPFVLDKWPHVYIVANQPYFGTRVVEIGGKNIKIISVPEFSSTGMIILLDLETLEAETVKIDI
notes: Pol31p, accessory subunit of DNA polymerase δ, Saccharomyces cerevisiae

fold reduction of β-galactosidase in the met18 strain relative to the wild-type strain [2]: ~2 fold
B3: Pol31 fused to a GAL4-activation domain (GAL4AD-POL31, pBL364) (natural protein, S. cerevisiae, UniProt P46957 1-487, looked up)
chain: B2 chain
notes: Pol31p, accessory subunit of DNA polymerase δ, Saccharomyces cerevisiae; also called Pol31^AD; source: yeast two-hybrid fusion (2μ vector pACT2, strain L40 or its met18Δ derivative DKy440)
